For data set [1], the target named is T1, AfAgo (Archaeoglobus fulgidus DSM 4304, UniProt O28951 1-427).
T1 sequence: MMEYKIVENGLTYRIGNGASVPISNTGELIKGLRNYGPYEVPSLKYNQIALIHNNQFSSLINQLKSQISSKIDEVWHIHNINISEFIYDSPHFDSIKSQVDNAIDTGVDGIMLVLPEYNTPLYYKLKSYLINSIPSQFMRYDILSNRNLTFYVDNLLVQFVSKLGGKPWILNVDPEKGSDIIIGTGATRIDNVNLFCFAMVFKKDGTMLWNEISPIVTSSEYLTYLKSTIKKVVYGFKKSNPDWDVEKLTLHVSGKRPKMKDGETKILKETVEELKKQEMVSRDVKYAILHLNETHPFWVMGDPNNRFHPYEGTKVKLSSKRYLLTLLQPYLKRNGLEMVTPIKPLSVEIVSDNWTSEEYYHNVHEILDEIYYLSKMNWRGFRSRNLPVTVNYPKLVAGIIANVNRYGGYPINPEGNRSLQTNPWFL
The data set is described as follows: X-ray crystallography; 5 mM Mg2+ in complex preparation; EMSA: 40 mM Tris-acetate pH 8.4 (25 C), 1 mM EDTA, 100 mM K-acetate, 0.1 mg/ml BSA, 1 mM DTT, 10% glycerol; 5 nM NA (1 nM 32P + 4 nM cold); 10 min at 25 C. The settings on record: protein: recombinant; tags: N-terminal His (HisTrap; construct name NHis-Af1318); blunt, self-complementary, 2 strand copies. A general note: Mobility shift assays separate free from complexed probe on a gel.

Data set [2] deals with T1, AfAgo. As to the kind of experiment: EMSA; EMSA: 40 mM Tris-acetate pH 8.4 (25 C), 1 mM EDTA, 100 mM K-acetate, 0.1 mg/ml BSA, 1 mM DTT, 10% glycerol; 5 nM NA (1 nM 32P + 4 nM cold); 10 min at 25 C. The settings on record: protein: recombinant; tags: N-terminal His (HisTrap; construct name NHis-Af1318); label: 5'-32P.
The target of data set [3] is T1, AfAgo. As to the kind of experiment: EMSA; AfAgo pre-loaded with gRNA (1:2), target titrated; no heparin; EMSA: 40 mM Tris-acetate pH 8.4 (25 C), 1 mM EDTA, 100 mM K-acetate, 0.1 mg/ml BSA, 1 mM DTT, 10% glycerol; 5 nM NA (1 nM 32P + 4 nM cold); 10 min at 25 C. The following applies: protein: recombinant; tags: N-terminal His (HisTrap; construct name NHis-Af1318); label: 5'-32P on target; guide nt 1-8 complementary to target 3' end; rest largely unpaired.

Data set [4] concerns the target T1, AfAgo. The data set is described as follows: EMSA; pre-formed duplex; EMSA: 40 mM Tris-acetate pH 8.4 (25 C), 1 mM EDTA, 100 mM K-acetate, 0.1 mg/ml BSA, 1 mM DTT, 10% glycerol; 5 nM NA (1 nM 32P + 4 nM cold); 10 min at 25 C. The following applies: protein: recombinant; tags: N-terminal His (HisTrap; construct name NHis-Af1318); label: 5'-32P; blunt.
Data set [5] concerns the molecule itself. As to the kind of experiment: crystal structure; AfAgo-DNA oligoduplex complexes, 90-120 uM (as monomer), crystals grown at 4-8 °C; P1 crystals (5'P-ATC DNA) hold two DNA-bound subunits per asymmetric unit; in the P22(1)2(1) crystals (5'P-ATT DNA) the dimer is formed by a crystallographic symmetry operator.
For data set [6], the target named is T1, AfAgo. The data set is described as follows: X-ray crystallography; Mg2+; EMSA: 40 mM Tris-acetate pH 8.4 (25 C), 1 mM EDTA, 100 mM K-acetate, 0.1 mg/ml BSA, 1 mM DTT, 10% glycerol; 5 nM NA (1 nM 32P + 4 nM cold); 10 min at 25 C. The settings on record: protein: recombinant; tags: N-terminal His (HisTrap; construct name NHis-Af1318); blunt, self-complementary, 2 strand copies.

Broadly, the Kd is a measure of binding affinity in units of concentration.

B1: MZ-952 5'-ATC oligoduplex (dsDNA)
DNA 1: ATCGTGGCCACGAT
DNA 2: ATCGTGGCCACGAT
modifications: 5'-phosphate
B1: in data set [1], the binding result is recorded as “binds”.

Consider GUUGUACACGGCCGAAC (ssRNA, 5'-phosphate) [MZ-1698 GUU ssRNA], for which the Kd in data set [2] turned out to be 42 ± 2.1 nM.

CUUGUACACGGCCGAAG (ssRNA, 5'-phosphate) [MZ-1708 CUU ssRNA]: the Kd in data set [2] came to 28 ± 2.7 nM.

AUUGUACACGGCCGAAU (ssRNA, 5'-phosphate) [MZ-1480 5'P-AUU ssRNA]: in data set [2], the Kd was found to be 3.8 ± 0.1 nM.

For the molecule ATTGTACACGGCCGAAT (ssDNA, 5'-phosphate) [MZ-1447 ATT ssDNA], the Kd in data set [2] was determined as 236 ± 35 nM.

AUCGUACACGGCCGGAU (ssRNA, 5'-phosphate) [MZ-1706 AUC ssRNA]: the Kd in data set [2] came out at 16 ± 2.1 nM.

B2: MZ-1289 5'-ATT oligoduplex (dsDNA)
DNA 1: ATTGTACGTACAAT
DNA 2: ATTGTACGTACAAT
modifications: 5'-phosphate
On to B2, for which the binding result in data set [1] is recorded as “binds”.

B3: gRNA MZ-1480 + target RNA MZ-1556 (8 nt) (dsRNA)
RNA 1: AUUGUACACGGCCGAAU
RNA 2: CGGAAUAUAUGUACAAU
modifications: 5'-phosphate
B3: the Kd in data set [3] came out at 33 ± 4.2 nM.

Consider UUUGUACACGGCCGAAA (ssRNA, 5'-phosphate) [MZ-1699 UUU ssRNA], for which, in data set [2], the dissociation constant Kd was 15 ± 2.8 nM.

B4: MZ-1447/MZ-1455 dsDNA (dsDNA)
DNA 1: ATTGTACACGGCCGAAT
DNA 2: ATTCGGCCGTGTACAAT
modifications: 5'-phosphate
In the case of B4, the Kd in data set [4] was 37 ± 17 nM.

B5: MZ-1480/MZ-1481 dsRNA (dsRNA)
RNA 1: AUUGUACACGGCCGAAU
RNA 2: AUUCGGCCGUGUACAAU
modifications: 5'-phosphate
In the case of B5, the Kd in data set [4] came out at 15 ± 0.9 nM.

B6: Archaeoglobus fulgidus Argonaute protein (AfAgo) (natural protein, Archaeoglobus fulgidus DSM 4304)
chain: MMEYKIVENGLTYRIGNGASVPISNTGELIKGLRNYGPYEVPSLKYNQIALIHNNQFSSLINQLKSQISSKIDEVWHIHNINISEFIYDSPHFDSIKSQVDNAIDTGVDGIMLVLPEYNTPLYYKLKSYLINSIPSQFMRYDILSNRNLTFYVDNLLVQFVSKLGGKPWILNVDPEKGSDIIIGTGATRIDNVNLFCFAMVFKKDGTMLWNEISPIVTSSEYLTYLKSTIKKVVYGFKKSNPDWDVEKLTLHVSGKRPKMKDGETKILKETVEELKKQEMVSRDVKYAILHLNETHPFWVMGDPNNRFHPYEGTKVKLSSKRYLLTLLQPYLKRNGLEMVTPIKPLSVEIVSDNWTSEEYYHNVHEILDEIYYLSKMNWRGFRSRNLPVTVNYPKLVAGIIANVNRYGGYPINPEGNRSLQTNPWFL
notes: AfAgo, hypothetical protein from Archaeoglobus fulgidus DSM 4304, GenBank NP_070147.1, cloned in pETDuet-1; also called AfPIWI; Af1318; source: E. coli, purified (Ni2+ HiTrap chelating, RNase A/T1 treatment, HiTrap Heparin, Superdex 200)
For B6, the binding result in data set [5] is “binds”.

B7: MZ-1288 5'-ATT oligoduplex (dsDNA)
DNA 1: ATTGTGGCCACAAT
DNA 2: ATTGTGGCCACAAT
modifications: 5'-phosphate
Take B7: the binding result in data set [6] was “binds”.

With AGUGUACACGGCCGACU (ssRNA, 5'-phosphate) [MZ-1707 AGU ssRNA], the equilibrium dissociation constant (Kd) in data set [2] turned out to be 84 ± 2.9 nM.

B8: gRNA MZ-1480 + target DNA MZ-1560 (8 nt) (DNA:RNA)
RNA: AUUGUACACGGCCGAAU
DNA: CGGAATATATGTACAAT
modifications: 5'-phosphate
With B8, in data set [3], the Kd was 7.5 ± 0.4 nM.

B9: MZ-1480/MZ-1455 RNA/DNA heteroduplex (DNA:RNA)
RNA: AUUGUACACGGCCGAAU
DNA: ATTCGGCCGTGTACAAT
modifications: 5'-phosphate
Consider B9, for which, in data set [4], the dissociation constant Kd turned out to be 6.1 ± 0.04 nM.
